Source: US10660951

How the values were obtained:
[1] = biological target: envelope glycoprotein of HIV-1 HXB2 on pseudotyped virus (HIV-1 HXB2) (UniProt P04578); experiment: cell-based or functional assay
[2] = biological target: envelope of HIV-1 isolate CNE5 on pseudotyped virus (HIV-1 CNE5); experiment: cell-based or functional assay

Question: For b12 (antibody), which ND50, neutralization of pseudotyped virus (luciferase) [1] is on record?
Answer: 0.119 µg/mL

Question: And the ND50, neutralization of pseudotyped virus (luciferase) [2]?
Answer: 23.1 µg/mL
